This note sets out measurements from patent publication US20150125431A1 (ZEALAND PHARMA A S, published 2015).

The labels stand for the following.
T1: human GLP-2 receptor (hGLP2-R), splice variant rs17681684 (human, UniProt O95838 1-553)
T1 sequence (looked up): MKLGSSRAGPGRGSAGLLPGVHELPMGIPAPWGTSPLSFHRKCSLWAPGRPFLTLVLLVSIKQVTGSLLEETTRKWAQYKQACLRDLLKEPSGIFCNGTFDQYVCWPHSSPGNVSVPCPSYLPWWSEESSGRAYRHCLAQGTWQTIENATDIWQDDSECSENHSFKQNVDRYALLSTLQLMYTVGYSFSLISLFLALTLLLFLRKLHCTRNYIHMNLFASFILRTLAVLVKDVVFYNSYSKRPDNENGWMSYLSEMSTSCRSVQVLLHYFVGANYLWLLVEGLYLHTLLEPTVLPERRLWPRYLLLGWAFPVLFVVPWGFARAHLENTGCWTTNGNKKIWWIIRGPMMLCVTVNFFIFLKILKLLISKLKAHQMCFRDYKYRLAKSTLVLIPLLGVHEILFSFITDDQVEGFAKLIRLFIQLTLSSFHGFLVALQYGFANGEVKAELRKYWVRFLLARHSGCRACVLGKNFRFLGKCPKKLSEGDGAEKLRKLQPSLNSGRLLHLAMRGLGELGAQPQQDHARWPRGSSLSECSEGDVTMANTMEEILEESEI

B1: Compound 10: Hy-H-Aib-DGSFSDELNTILDGKAARDFINWLIQTK-NH2 (peptide)
peptide: H-H[Aib]DGSFSDELNTILDGKAARDFINWLIQTK-NH2
SMILES: CC[C@H](C)[C@H](NC(=O)[C@H](Cc1ccccc1)NC(=O)[C@H](CC(=O)O)NC(=O)[C@H](CCCNC(=N)N)NC(=O)[C@H](C)NC(=O)[C@H](C)NC(=O)[C@H](CCCCN)NC(=O)CNC(=O)[C@H](CC(=O)O)NC(=O)[C@H](CC(C)C)NC(=O)[C@@H](NC(=O)[C@@H](NC(=O)[C@H](CC(N)=O)NC(=O)[C@H](CC(C)C)NC(=O)[C@H](CCC(=O)O)NC(=O)[C@H](CC(=O)O)NC(=O)[C@H](CO)NC(=O)[C@H](Cc1ccccc1)NC(=O)[C@H](CO)NC(=O)CNC(=O)[C@H](CC(=O)O)NC(=O)C(C)(C)NC(=O)[C@@H](N)Cc1c[nH]cn1)[C@@H](C)O)[C@@H](C)CC)C(=O)N[C@@H](CC(N)=O)C(=O)N[C@@H](Cc1c[nH]c2ccccc12)C(=O)N[C@@H](CC(C)C)C(=O)N[C@H](C(=O)N[C@@H](CCC(N)=O)C(=O)N[C@H](C(=O)N[C@@H](CCCCN)C(N)=O)[C@@H](C)O)[C@@H](C)CC
B2: Compound 1: Hy-H-Aib-DGSFSDEMNTILDNQAARDFINWLIQTKITD-OH (peptide)
peptide: H-H[Aib]DGSFSDEMNTILDNQAARDFINWLIQTKITD-OH
SMILES: CC[C@H](C)[C@H](NC(=O)[C@H](Cc1ccccc1)NC(=O)[C@H](CC(=O)O)NC(=O)[C@H](CCCNC(=N)N)NC(=O)[C@H](C)NC(=O)[C@H](C)NC(=O)[C@H](CCC(N)=O)NC(=O)[C@H](CC(N)=O)NC(=O)[C@H](CC(=O)O)NC(=O)[C@H](CC(C)C)NC(=O)[C@@H](NC(=O)[C@@H](NC(=O)[C@H](CC(N)=O)NC(=O)[C@H](CCSC)NC(=O)[C@H](CCC(=O)O)NC(=O)[C@H](CC(=O)O)NC(=O)[C@H](CO)NC(=O)[C@H](Cc1ccccc1)NC(=O)[C@H](CO)NC(=O)CNC(=O)[C@H](CC(=O)O)NC(=O)C(C)(C)NC(=O)[C@@H](N)Cc1c[nH]cn1)[C@@H](C)O)[C@@H](C)CC)C(=O)N[C@@H](CC(N)=O)C(=O)N[C@@H](Cc1c[nH]c2ccccc12)C(=O)N[C@@H](CC(C)C)C(=O)N[C@H](C(=O)N[C@@H](CCC(N)=O)C(=O)N[C@H](C(=O)N[C@@H](CCCCN)C(=O)N[C@H](C(=O)N[C@H](C(=O)N[C@@H](CC(=O)O)C(=O)O)[C@@H](C)O)[C@@H](C)CC)[C@@H](C)O)[C@@H](C)CC

Non-standard residues stand in square brackets, D forms with d. Aib = CC(C)(N)C(=O)O Some results are limits rather than exact numbers.

In one experiment the target is human GLP-2 receptor (hGLP2-R), splice variant rs17681684 (human) (UniProt O95838). The experiment can be described thus: cell-based or functional assay.
In the case of “GLP-1 (from UniProt P01275 98-127) (peptide)”, the GLP-2R EC50 (nM), cAMP AlphaScreen on HEK293 cells expressing the receptor was more than 1000 nM.

The target in a further experiment is T1, human GLP-2 receptor (hGLP2-R), splice …. The experiment can be described thus: cell-based or functional assay.
With H-HGDGSFSDEMNTILDNKAARDFINWLIQTKITD-OH [Compound 2: Hy-HGDGSFSDEMNTILDNKAARDFINWLIQTKITD-OH], the “GLP-2R EC50 (nM), cAMP AlphaScreen on HEK293 cells expressing the receptor” value (“GLP-2R EC50 (nM), cAMP AlphaScreen” for short) stood at 0.02 nM.
Same read-out and setting: as for B1, the figure is 3.9 nM; as for H-HGEGTFTSDLSTILENKAARDFIEWLIQTKITD-OH [Compound 8: Hy-HGEGTFTSDLSTILENKAARDFIEWLIQTKITD-OH], 0.008 nM; as for H-HGEGTFTSDLSKQMEGQAVRDFIEWLIQTKITD-OH [Compound 5: Hy-HGEGTFTSDLSKQMEGQAVRDFIEWLIQTKITD-OH], 0.2 nM.
Same read-out and setting: with B2 the figure was 0.12 nM; with H-HGDGSFSSELATILDGQAARDFIAWLIQTKITD-OH [Compound 11: Hy-HGDGSFSSELATILDGQAARDFIAWLIQTKITD-OH], 0.2 nM.
As to H-HGEGSFSSDLSTILEGKAARDFIEWLIQTKITD-OH [Compound 13: Hy-HGEGSFSSDLSTILEGKAARDFIEWLIQTKITD-OH], the “GLP-2R EC50 (nM), cAMP AlphaScreen” value came out at 0.1 nM.
For H-HGDGSFSSEMNTILDSQAARDFINWLIQTKITD-OH [Compound 4: Hy-HGDGSFSSEMNTILDSQAARDFINWLIQTKITD-OH], the “GLP-2R EC50 (nM), cAMP AlphaScreen” value is 0.06 nM.
Still for that read-out and setting: with H-HGDGSFSSELATILDGKAARDFINWLIQTKITD-OH [Compound 7: Hy-HGDGSFSSELATILDGKAARDFINWLIQTKITD-OH] the figure was 0.2 nM; with H-HGEGSFSSDLSTILENKAARDFIEWLIQTKITD-OH [Compound 9: Hy-HGEGSFSSDLSTILENKAARDFIEWLIQTKITD-OH], 0.2 nM.

The target in the next experiment is human glucagon-like peptide 1 receptor (GLP-1R) (human, UniProt P43220 24-463). The experiment can be described thus: cell-based or functional assay.
With H-HGDGSFSDEMNTILDNKAARDFINWLIQTKITD-OH [Compound 2: Hy-HGDGSFSDEMNTILDNKAARDFINWLIQTKITD-OH], the “GLP-1R EC50 (nM), cAMP AlphaScreen on HEK293 cells expressing the receptor” value (shortened to “GLP-1R EC50 (nM), cAMP AlphaScreen”) worked out at 77 nM.
With B1, the “GLP-1R EC50 (nM), cAMP AlphaScreen” value came out at 0.03 nM.
Still for that read-out and setting: as for H-HGEGTFTSDLSTILENKAARDFIEWLIQTKITD-OH [Compound 8: Hy-HGEGTFTSDLSTILENKAARDFIEWLIQTKITD-OH], the figure is 16 nM; as for H-HGEGTFTSDLSKQMEGQAVRDFIEWLIQTKITD-OH [Compound 5: Hy-HGEGTFTSDLSKQMEGQAVRDFIEWLIQTKITD-OH], 1 nM.
The same measure, in the same setting: as for B2, the figure is 44 nM; as for H-HGDGSFSSELATILDGQAARDFIAWLIQTKITD-OH [Compound 11: Hy-HGDGSFSSELATILDGQAARDFIAWLIQTKITD-OH], 0.34 nM.
As to H-HGEGSFSSDLSTILEGKAARDFIEWLIQTKITD-OH [Compound 13: Hy-HGEGSFSSDLSTILEGKAARDFIEWLIQTKITD-OH], the “GLP-1R EC50 (nM), cAMP AlphaScreen” value was found to be 18 nM.
Same read-out and setting: with H-HGDGSFSSEMNTILDSQAARDFINWLIQTKITD-OH [Compound 4: Hy-HGDGSFSSEMNTILDSQAARDFINWLIQTKITD-OH] the figure was 25 nM.
Same read-out and setting: with H-HGDGSFSSELATILDGKAARDFINWLIQTKITD-OH [Compound 7: Hy-HGDGSFSSELATILDGKAARDFINWLIQTKITD-OH] the figure was 0.78 nM.
H-HGEGTFTSDLSKQMESKAARDFIEWLIQTKITD-OH [Compound 6: Hy-HGEGTFTSDLSKQMESKAARDFIEWLIQTKITD-OH]: the “GLP-1R EC50 (nM), cAMP AlphaScreen” value worked out at 1.1 nM.
On the same count and under the same terms, as for H-HGEGSFSSDLSTILENKAARDFIEWLIQTKITD-OH [Compound 9: Hy-HGEGSFSSDLSTILENKAARDFIEWLIQTKITD-OH], the figure is 9.1 nM.
